Results: article PMC5358723 (Genes & Development, 2017)

B1: ZMYM3 CT (amino acids 1000-1370), bacterially expressed (domain or fragment, human, UniProt Q14202 1000-1370, looked up)
chain: FPKNPLDINPSVDFLFDCGLVGPEDVSTEQDLPRTMRKGQKRLVLSESCSRDSMSSQPSCTGLNYSYGVNAWKCWVQSKYANGETSKGDELRFGPKPMRIKEDILACSAAELNYGLAQFVREITRPNGERYEPDSIYYLCLGIQQYLLENNRMVNIFTDLYYLTFVQELNKSLSTWQPTLLPNNTVFSRVEEEHLWECKQLGVYSPFVLLNTLMFFNTKFFGLQTAEEHMQLSFTNVVRQSRKCTTPRGTTKVVSIRYYAPVRQRKGRDTGPGKRKREDEAPILEQRENRMNPLRCPVKFYEFYLSKCPESLRTRNDVFYLQPERSCIAESPLWYSVIPMDRSMLESMLNRILAVREIYEELGRPGEEDLD
B2: RAP80-AIR (amino acids 227-346), bacterially expressed (domain or fragment, UniProt Q96RL1 227-346, looked up)
chain: HTQCGKPQESTGRGSAFLKAVQGSGDTSRHCLPTLADAKGLQDTGGTVNYFWGIPFCPDGVDPNQYTKVILCQLEVYQKSLKMAQRQLLNKKGFGEPVLPRPPSLIQNECGQGEQASEKN

Tests used:
[1] = target: T1, full-length ABRA1, bacterially expressed (UniProt Q6UWZ7 1-409); test: pull-down
T1 sequence (looked up): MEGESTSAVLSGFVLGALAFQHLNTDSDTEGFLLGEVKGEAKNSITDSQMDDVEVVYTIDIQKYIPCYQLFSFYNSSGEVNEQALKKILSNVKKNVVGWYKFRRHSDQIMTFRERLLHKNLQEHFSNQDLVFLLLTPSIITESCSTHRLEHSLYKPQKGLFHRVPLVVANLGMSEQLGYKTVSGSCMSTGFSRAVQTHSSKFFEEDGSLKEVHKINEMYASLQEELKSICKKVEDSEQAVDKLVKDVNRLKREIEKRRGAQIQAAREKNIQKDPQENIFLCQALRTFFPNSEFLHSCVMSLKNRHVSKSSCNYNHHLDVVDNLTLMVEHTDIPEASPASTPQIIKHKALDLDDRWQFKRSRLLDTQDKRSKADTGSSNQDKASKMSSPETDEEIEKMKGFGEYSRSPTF

[2] = target: B1; test: pull-down

Row | Binder | binding result [1] | binding result [2]
1 | B1 | binds | –
2 | B2 | – | binds
